In patent US20260242478A1 (published 2026):
Where no end group is shown, it is not given here.

Key:
[1] = target: Anti-CD28 Fab (SEQ ID NOs: 696, 697); test: phage binding ELISA on captured anti-CD28 Fab; competitor CD28 antigen pre-incubated in the wells
Target sequence in this assay (VH, as listed by the source, chain 1 of 2): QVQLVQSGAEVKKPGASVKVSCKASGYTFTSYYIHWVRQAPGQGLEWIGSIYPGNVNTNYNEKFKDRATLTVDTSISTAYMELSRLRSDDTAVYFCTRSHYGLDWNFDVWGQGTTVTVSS
Target sequence in this assay (VL, as listed by the source, chain 2 of 2): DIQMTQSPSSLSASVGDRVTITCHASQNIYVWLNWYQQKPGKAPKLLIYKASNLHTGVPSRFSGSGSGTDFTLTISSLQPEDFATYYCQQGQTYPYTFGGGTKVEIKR
Method: (§1) After panning, phage infected bacteria were plated out and colonies picked into 96 well blocks. Clonal phage was then amplified and separated from bacterial cells via centrifugation.
(§2) Clonal phage were harvested as crude supematants and screened via standard ELISAs. […] Prior to the addition of clonal phage, wells were incubated with blocking buffer and CD28 antigen or blocking buffer alone. Without washing or aspirating, clonal phage supematants were then added to the wells and incubated for a short time. Wells were then washed followed by detection of bound phage using a horse radish conjugated anti-M13 antibody. Clonal phage of interest were then sent for sequence analysis.

[2] = target: Anti-CD28 Fab (SEQ ID NOs: 696, 697); test: phage binding ELISA; biotinylated anti-CD28 Fab on neutravidin plate, clonal phage supernatant, anti-M13 HRP;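 also: crude clonal phage supernatants screened after wells were preincubated either with CD28 antigen in blocking buffer or with blocking buffer only, phage added without washing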
Target sequence in this assay (VH, as listed by the source, chain 1 of 2): as the sequence (VH, as listed by the source, chain 1 of 2) above
Target sequence in this assay (VL, as listed by the source, chain 2 of 2): as the sequence (VL, as listed by the source, chain 2 of 2) above
Method: as §1, §2

[3] = target: T1, Anti-CD28 Fab (SEQ ID NOs: 696, 697); test: phage binding ELISA with the Fab-coated wells pre-incubated with CD28 antigen (competitor: CD28), anti-M13 HRP detection
T1 construct: In the phage ELISA the Fab was biotinylated and captured on neutravidin coated plates
T1 sequence (VH, as listed by the source, chain 1 of 2): as the sequence (VH, as listed by the source, chain 1 of 2) above
T1 sequence (VL, as listed by the source, chain 2 of 2): as the sequence (VL, as listed by the source, chain 2 of 2) above
Method: as §1, §2

[4] = target: T1, Anti-CD28 Fab (SEQ ID NOs: 696, 697); test: phage binding ELISA; biotinylated anti-CD28 Fab on neutravidin plate, clonal phage supernatant, anti-M13 HRP detection
Method: as §1, §2

[5] = target: T2, Anti-CD28 Fab (SEQ ID NOs: 696, 697); test: phage ELISA, clonal phage on biotinylated anti-CD28 Fab captured on neutravidin plates;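 also: crude clonal phage supernatants added to wells pretreated with CD28 antigen or with blocking buffer only, bound phage detected by HRP-linked anti-M13 antibody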
T2 construct: Biotinylated and captured on neutravidin coated plates in the phage ELISA
T2 sequence (VH, as listed by the source, chain 1 of 2): as the sequence (VH, as listed by the source, chain 1 of 2) above
T2 sequence (VL, as listed by the source, chain 2 of 2): as the sequence (VL, as listed by the source, chain 2 of 2) above
Method: as §1, §2

[6] = target: T2, Anti-CD28 Fab (SEQ ID NOs: 696, 697); test: phage ELISA on captured anti-CD28 Fab, wells pre-incubated with CD28 antigen as competitor;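 also: crude clonal phage supernatants added without washing, bound phage read out by HRP-coupled anti-M13 antibody, reference wells given blocking buffer only instead of CD28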
Method: as §1, §2

[7] = target: T3, Anti-CD28 Fab (SEQ ID NOs: 696, 697); test: phage ELISA, clonal phage on biotinylated anti-CD28 Fab captured on neutravidin, anti-M13-HRP detection
T3 construct: Biotinylated and captured on neutravidin coated plates in the phage ELISA
T3 sequence (VH, as listed by the source, chain 1 of 2): as the sequence (VH, as listed by the source, chain 1 of 2) above
T3 sequence (VL, as listed by the source, chain 2 of 2): as the sequence (VL, as listed by the source, chain 2 of 2) above
Method: as §1, §2

[8] = target: T3, Anti-CD28 Fab (SEQ ID NOs: 696, 697); test: phage ELISA on captured anti-CD28 Fab, wells first incubated with CD28 antigen (competitor)
Method: as §1, §2

| Binder | Anti-CD28 Fab signal in the presence of CD28 (phage binding ELISA) [3] | Anti-CD28 Fab signal (phage binding ELISA) [4] | Anti-CD28 Fab signal (phage binding ELISA) [7] | Anti-CD28 Fab signal in the presence of CD28 (phage binding ELISA) [8] | other results |
| --- | --- | --- | --- | --- | --- |
| YCEGHVAEYRAKCL (cysteine pairing not given here; also: displayed on phage by fusion to pIII, linker and pIII sequence not given here, Clonal phage of the Peptide-87 library; not shown: fused to the pIII filament of the bacteriophage) [Phage-1169] | – | – | – | – | Anti-CD28 Fab signal in the presence of CD28 [1]: 0.09; Anti-CD28 Fab (SEQ ID NOs: 696, 697) signal [2]: 1.15 |
| YCDGHSWIYMVKCL [Phage-1166] | 0.06 | 1.16 | – | – | – |
| YCAGLFEEYMSKCL [Phage-1135] | – | – | – | – | Anti-CD28 Fab signal (phage binding ELISA) [5]: 1.25; Anti-CD28 Fab signal in the presence of CD28 (phage binding ELISA) [6]: 0.06 |
| YCEGHSYQYMQKCL [Phage-1164] | 0.06 | 1.16 | – | – | – |
| YCAGHAPEYISKCL [Phage-1152] | – | – | 1.21 | 0.07 | – |
| YCEGHMPEYLAKCL [Phage-1156] | 0.07 | 1.18 | – | – | – |
| YCDGHLSVYMSKCL [Phage-1167] | 0.07 | 1.15 | – | – | – |
| YCEGHRAEYMSKCL [Phage-1165] | 0.09 | 1.16 | – | – | – |
| YCEGHLPQYMSKCL [Phage-1168] | 0.09 | 1.15 | – | – | – |
| YCEGHLQEHMAKCL [Phage-1134] | – | – | – | – | Anti-CD28 Fab signal (phage binding ELISA) [5]: 1.25; Anti-CD28 Fab signal in the presence of CD28 (phage binding ELISA) [6]: 0.05 |
| YCAGHTAEYMAKCL [Phage-1139] | – | – | – | – | Anti-CD28 Fab signal (phage binding ELISA) [5]: 1.24; Anti-CD28 Fab signal in the presence of CD28 (phage binding ELISA) [6]: 0.08 |
| YCEGHSTEYIQKCL [Phage-1144] | – | – | 1.23 | 0.09 | – |
| YCEGHAEQYMEKCL [Phage-1162] | 0.08 | 1.17 | – | – | – |
| YCDGHLQMYMMKCL (cysteine pairing not given here; also: displayed on phage by fusion to pIII, linker and pIII sequence not given here, Clonal phage of the Peptide-87 library; not shown: fused to the pIII filament of the bacteriophage) [Phage-1173] | – | – | – | – | Anti-CD28 Fab signal in the presence of CD28 [1]: 0.07; Anti-CD28 Fab (SEQ ID NOs: 696, 697) signal [2]: 1.14 |
| YCHGHLPQYMSKCM [Phage-1150] | – | – | 1.21 | 0.06 | – |
| YCDGHVEEYMTKCL [Phage-1141] | – | – | – | – | Anti-CD28 Fab signal (phage binding ELISA) [5]: 1.24; Anti-CD28 Fab signal in the presence of CD28 (phage binding ELISA) [6]: 0.07 |
| YCAGHLDIYLAKCL [Phage-1151] | – | – | 1.21 | 0.07 | – |
| YCAGHSSEYIGKCL [Phage-1159] | 0.06 | 1.17 | – | – | – |
| YCEGHLAEYMNKCL [Phage-1140] | – | – | – | – | Anti-CD28 Fab signal (phage binding ELISA) [5]: 1.24; Anti-CD28 Fab signal in the presence of CD28 (phage binding ELISA) [6]: 0.07 |
| YCEGHSQTYMWKCL [Phage-1158] | 0.08 | 1.17 | – | – | – |

| Binder | Anti-CD28 Fab signal in the presence of CD28 (phage binding ELISA) [3] | Anti-CD28 Fab signal (phage binding ELISA) [4] | Anti-CD28 Fab signal (phage binding ELISA) [7] | Anti-CD28 Fab signal in the presence of CD28 (phage binding ELISA) [8] | other results |
| --- | --- | --- | --- | --- | --- |
| YCEGHSQQYMWKCL [Phage-1160] | 0.05 | 1.17 | – | – | – |
| YCEGHLKEYMQKCL [Phage-1163] | 0.07 | 1.17 | – | – | – |
| YCEGHAAAYMGKCL (cysteine pairing not given here; also: displayed on phage by fusion to pIII, linker and pIII sequence not given here, Clonal phage of the Peptide-87 library; not shown: fused to the pIII filament of the bacteriophage) [Phage-1171] | – | – | – | – | Anti-CD28 Fab signal in the presence of CD28 [1]: 0.08; Anti-CD28 Fab (SEQ ID NOs: 696, 697) signal [2]: 1.14 |
| YCDGHEQQYMEKCL (cysteine pairing not given here; also: displayed on phage by fusion to pIII, linker and pIII sequence not given here, Clonal phage of the Peptide-87 library; not shown: fused to the pIII filament of the bacteriophage) [Phage-1172] | – | – | – | – | Anti-CD28 Fab signal in the presence of CD28 [1]: 0.06; Anti-CD28 Fab (SEQ ID NOs: 696, 697) signal [2]: 1.14 |
| YCEGHIGIYMSKCL [Phage-1143] | – | – | 1.23 | 0.07 | – |
| YCEGHSAEHMPKCL [Phage-1146] | – | – | 1.23 | 0.09 | – |
| YCDGHSQEYMSKCL [Phage-1149] | – | – | 1.21 | 0.06 | – |
| YCDGHSWEYLGKCL [Phage-1153] | – | – | 1.2 | 0.05 | – |
| YCDGHLEQYMLKCL [Phage-1142] | – | – | – | – | Anti-CD28 Fab signal (phage binding ELISA) [5]: 1.24; Anti-CD28 Fab signal in the presence of CD28 (phage binding ELISA) [6]: 0.09 |
| YCEGHTQEYMQKCL [Phage-1138] | – | – | – | – | Anti-CD28 Fab signal (phage binding ELISA) [5]: 1.24; Anti-CD28 Fab signal in the presence of CD28 (phage binding ELISA) [6]: 0.07 |
| YCEGHAAEYLWKCL [Phage-1154] | – | – | 1.18 | 0.09 | – |
| YCQGHLPQYIEKCL (cysteine pairing not given here; also: displayed on phage by fusion to pIII, linker and pIII sequence not given here, Clonal phage of the Peptide-87 library; not shown: fused to the pIII filament of the bacteriophage) [Phage-1170] | – | – | – | – | Anti-CD28 Fab signal in the presence of CD28 [1]: 0.06; Anti-CD28 Fab (SEQ ID NOs: 696, 697) signal [2]: 1.14 |
| YCEGHAGVYMAKCL [Phage-1157] | 0.05 | 1.17 | – | – | – |
| YCVGHYPEYMEKCL [Phage-1147] | – | – | 1.22 | 0.07 | – |
| YCEGHLPMYMTKCL [Phage-1136] | – | – | – | – | Anti-CD28 Fab signal (phage binding ELISA) [5]: 1.25; Anti-CD28 Fab signal in the presence of CD28 (phage binding ELISA) [6]: 0.06 |
| YCDGHLPDYMAKCL [Phage-1161] | 0.07 | 1.17 | – | – | – |
| YCDGHRPEYMSKCL [Phage-1155] | – | – | 1.18 | 0.07 | – |
| YCDGHSMMYMQKCL [Phage-1145] | – | – | 1.23 | 0.06 | – |
| YCDGHSEQYMAKCL [Phage-1137] | – | – | – | – | Anti-CD28 Fab signal (phage binding ELISA) [5]: 1.24; Anti-CD28 Fab signal in the presence of CD28 (phage binding ELISA) [6]: 0.06 |
| YCDGHEARYMQKCL [Phage-1148] | – | – | 1.21 | 0.07 | – |
